Two molecules from publication PMC4763257, “A replaceable liposomal aptamer for the ultrasensitive and rapid detection of biotin” can be followed below.

The series concerns the target streptavidin (UniProt P22629 25-183). Nature of the series: plate binding assay, liposome SRB fluorescence; at least 10-fold over aptamer-free liposomes; displaced by biotin; Streptavidin (10 ug/ml) coated plate, blocked with 1% BSA and 0.01 mg/ml salmon sperm DNA in TBS; 80 ul liposomal aptamer 1 h at RT; washes in TBS-sucrose; pH and salt not given. Conditions: protein: commercial; chain copies: 4; label: SRB-encapsulating liposome.

streptavidin, sequence (P22629 25-183): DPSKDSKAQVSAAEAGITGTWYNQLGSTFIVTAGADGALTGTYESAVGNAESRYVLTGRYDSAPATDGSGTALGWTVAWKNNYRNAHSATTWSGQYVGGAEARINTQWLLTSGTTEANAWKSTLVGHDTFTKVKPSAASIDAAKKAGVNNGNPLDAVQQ

In the case of ATTGACCTCTGTGTGACGCAACACTCAAT (structured_DNA, 3'-TEG-cholesterol) [ST-21M liposomal aptamer], the binding result is recorded as “binds”. Turning to ATTGACCGCTGTGTGACGCAACACTCAAT (structured_DNA, 3'-TEG-cholesterol) [ST-21 liposomal aptamer], the binding result was “binds”.
